Assay [1] has as its target T1, Soluble EBV gH/gL complex (poly-histidine tagged) (Epstein Barr Virus, UniProt P03231 19-679; P03212 24-137).
T1 construct: also called gH/gL Avi-His probe
Put plainly: BLI kinetics, KD on gH/gL against KD on gH/gL/gp42. A general note: Biolayer interferometry detects binding as a change in optical thickness at a sensor tip.

The target of assay [2] is T1, Soluble EBV gH/gL complex …. Kind of assay: BLI (Octet), His-captured soluble gH/gL on HIS1K biosensor, Fab in solution, 1:1 global fit; target gH/gL without gp42.
Assay [3] has as its target T2, Soluble EBV gH/gL/gp42 complex (HIS-tagged) (Epstein Barr Virus, UniProt P03231 19-679; P03212 24-137; P03205 33-223). Kind of assay: BLI (Octet), His-captured soluble gH/gL/gp42 on HIS1K biosensor, Fab in solution, 1:1 global fit; target gH/gL/gp42 (gp42 present).
The target in assay [4] is T1, Soluble EBV gH/gL complex …. Put plainly: Biolayer interferometry (Octet), His-tagged gH/gL on HIS1K biosensors, Fab dilution series (top curve labelled 2.50E-08), 1:1 global fit; same panel as FIG. 1C.
For assay [5], the target named is T2, Soluble EBV gH/gL/gp42 complex …. Put plainly: Biolayer interferometry (Octet), His-tagged gH/gL/gp42 on HIS1K biosensors, Fab dilution series (top curve labelled 2.50E-08), 1:1 global fit; same panel as FIG. 1C.
The target in assay [6] is T1, Soluble EBV gH/gL complex …. Put plainly: Biolayer interferometry (Octet), His-tagged gH/gL on HIS1K biosensors, Fab dilution series (top curve labelled 2.50E-08), 300 s association, 900 s dissociation, 1:1 global fit.
The target in assay [7] is T2, Soluble EBV gH/gL/gp42 complex …. Kind of assay: Biolayer interferometry (Octet), His-tagged gH/gL/gp42 on HIS1K biosensors, Fab dilution series (top curve labelled 2.50E-08), 300 s association, 900 s dissociation, 1:1 global fit.
The target in assay [8] is T1, Soluble EBV gH/gL complex …. Put plainly: Biolayer interferometry (Octet), His-tagged gH/gL on HIS1K biosensors, Fab dilution series (top curve labelled 5.00E-08), 300 s association, 900 s dissociation, 1:1 global fit.
Assay [9] deals with T2, Soluble EBV gH/gL/gp42 complex …. Put plainly: Biolayer interferometry (Octet), His-tagged gH/gL/gp42 on HIS1K biosensors, Fab dilution series (top curve labelled 1.00E-07), 300 s association, 900 s dissociation, 1:1 global fit.
Assay [10] has as its target T1, Soluble EBV gH/gL complex …. Put plainly: Biolayer interferometry (Octet), His-tagged gH/gL on HIS1K biosensors, Fab dilution series (top curve labelled 2.50E-08), 300 s association, 900 s dissociation, 1:1 global fit. This is another data set of the same source.
In assay [11] the target is T2, Soluble EBV gH/gL/gp42 complex …. Kind of assay: Biolayer interferometry (Octet), His-tagged gH/gL/gp42 on HIS1K biosensors, Fab dilution series (top curve labelled 5.00E-08), 300 s association, 900 s dissociation, 1:1 global fit.

A word on the Kd: it is the concentration at which binding is half-saturated. A high value points to a looser complex. Usually koff stands for a measure of how fast the partners let go of each other. A low value points to slow dissociation. As a reminder, the kon is a measure of how fast the partners come together. High values mean faster complex formation, low ones slower complex formation.

T1 sequence (P03231 19-679 limits assumed, chain 1 of 2): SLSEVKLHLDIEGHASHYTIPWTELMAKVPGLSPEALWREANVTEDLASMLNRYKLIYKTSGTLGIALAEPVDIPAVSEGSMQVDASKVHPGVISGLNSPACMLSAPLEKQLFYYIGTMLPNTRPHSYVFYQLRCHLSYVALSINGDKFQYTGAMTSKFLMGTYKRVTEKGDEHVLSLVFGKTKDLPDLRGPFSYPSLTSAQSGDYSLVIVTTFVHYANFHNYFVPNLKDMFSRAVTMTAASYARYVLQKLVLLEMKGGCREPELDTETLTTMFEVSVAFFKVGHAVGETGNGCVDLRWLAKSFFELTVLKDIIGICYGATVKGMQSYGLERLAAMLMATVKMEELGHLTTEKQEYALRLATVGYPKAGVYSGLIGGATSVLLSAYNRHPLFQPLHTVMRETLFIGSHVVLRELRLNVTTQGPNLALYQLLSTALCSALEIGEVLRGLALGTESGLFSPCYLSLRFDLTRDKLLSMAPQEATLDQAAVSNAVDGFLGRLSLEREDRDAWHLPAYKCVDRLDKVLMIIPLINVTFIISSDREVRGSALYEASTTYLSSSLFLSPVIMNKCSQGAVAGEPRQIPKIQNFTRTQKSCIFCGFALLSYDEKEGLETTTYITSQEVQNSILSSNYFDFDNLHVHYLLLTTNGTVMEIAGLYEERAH
T1 sequence (P03212 24-137 limits assumed, chain 2 of 2): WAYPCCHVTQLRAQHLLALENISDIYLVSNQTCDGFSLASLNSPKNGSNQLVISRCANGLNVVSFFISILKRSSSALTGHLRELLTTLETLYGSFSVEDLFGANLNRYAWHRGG
T2 sequence (P03231 19-679 limits assumed, chain 1 of 3): as the sequence (P03231 19-679 limits assumed, chain 1 of 2) above
T2 sequence (P03212 24-137 limits assumed, chain 2 of 3): as the sequence (P03212 24-137 limits assumed, chain 2 of 2) above
T2 sequence (P03205 33-223 limits assumed, chain 3 of 3): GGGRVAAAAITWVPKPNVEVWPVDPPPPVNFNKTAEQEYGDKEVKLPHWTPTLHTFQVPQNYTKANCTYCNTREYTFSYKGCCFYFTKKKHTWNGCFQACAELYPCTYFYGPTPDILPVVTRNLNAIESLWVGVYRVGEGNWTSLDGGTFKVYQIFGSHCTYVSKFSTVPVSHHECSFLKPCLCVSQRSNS

B1: Fab fragment of 769B10 (Fab, V domains shown)
VH: EVQLVESGGGIVQPGGSLRVSCAASGFSLSDHYMDWVRQAPGRGLEWVGRSRNKENSFTTEFAASVRRRFTISRDDSNSLLHLQMNNLKSEDTAVYFCARVGYYDLWSGYSGNWYIDVWGRGTLVIVSS
VL: DIQMTQSPSSLSASLGDSVTITCRASQTMSNFLNWYQQKPGKAPKFLIYAASRLQSGVPSRFSGSGSGTQFTLTISNLQPEDFATYYCQQSFIFPYTFGGGTKVEVE
notes: also called 769B10 Fab; B10 Fab
Regarding B1, the “fold stronger affinity than for gH/gL/gp42” value in assay [1] stood at 10 fold. Besides, the equilibrium dissociation constant (Kd) in [2] turned out to be 0.0307 nM; in assay [3], 0.458 nM. Also, the koff in assay [4] is 1.51e-05 s⁻¹; in [5], 2.58e-05 s⁻¹; in assay [6] it was 1.51e-05 s⁻¹; in assay [7], 2.58e-05 s⁻¹. Besides, the kon is 490000 M⁻¹ s⁻¹ in [4], 564000 M⁻¹ s⁻¹ in assay [5], 490000 M⁻¹ s⁻¹ in [6] and 564000 M⁻¹ s⁻¹ in assay [7].

B2: Fab fragment of antibody 769C2 (Fab, V domains shown)
VH: EVQLVESGGGLVKPGGSLRLSCAASGFTFSTYAMDWVRQAPGKGLEWVSLISSRSSNIYYSDSVKGRFTISRDNAKNSLFLQMNSLRAEDTAVYYCAREAGGFHSHFDMWGQGTLVTVSS
VL: QSVLTQPASVSGSLGQSVTISCTGTSSDVGGYDYVSWYQQHPGKAPKLMIFEVNNRPSGVSTRFSGSKSGNTASLTISGLQAEDEADYYCNSYSTTTTWVFGGGTSLT
notes: also called 769C2 Fab
Turning to B2, in [8], the Kd was 1.16 nM, the off-rate (koff) amounted to 0.000292 s⁻¹ and the on-rate (kon) came out at 252000 M⁻¹ s⁻¹. Further, in assay [9], the dissociation constant Kd came out at 2.05 nM, the koff amounted to 0.000425 s⁻¹ and the kon is 207000 M⁻¹ s⁻¹.

B3: Fab fragment of antibody 770F7 (Fab, V domains shown)
VH: QVQFQQWGAGLLKPSETLSLTCGVYGGSLSGYYWSWIRQTPGKGLEWIGEINHTGTTNYNPSLKSRVTMSVDTSKNQFSLKMSSLTAADTALYYCAREGAPRWALKRPSNWFDPWGQGTLVTVSS
VL: EIVLTQSPVSLSLSPGERATLSCRASQSISSTYLAWYQQIPGQAPRLLIYGASSRAAGIPDRFSGGGSGTDFTLTISRLEPEDFAVYYCQQYGSSPRSFGQGTKLEIK
notes: also called 770F7 Fab
In [10], B3 showed a Kd of 0.317 nM, a koff of 0.000165 s⁻¹ and a kon of 520000 M⁻¹ s⁻¹. Also, in assay [11], the equilibrium dissociation constant (Kd) was found to be 0.207 nM, the off-rate (koff) was 0.000128 s⁻¹ and the on-rate constant (kon) was determined as 619000 M⁻¹ s⁻¹.

Source of the values: US20210171610A1 (US Dept. of Health and Human Services, published 2021).
